In assay [1] the test system is primary mouse spiral ganglion neurons. The assay can be described thus: Promotion of neurite outgrowth. It counts as cell-based. Particulars: neurons isolated at postnatal day 4; neurofilament staining. As to the method:
Sprial ganglion neuron were cultured in culture media consisting of high-glucose (4.5 mg/mL) DMEM, 0.1 mg/ml penicillin, 0.1 mg/mL streptomycin, N2 supplement, and 10 µg/mL insulin and was designated here as “5K” because in this media, [K+]=5.4 mM. A depolarizing media, designated as “30K,” in which Na was replaced with equimolar K to raise [K] to 30 mM while maintaining osmolarity was also used.
Dissociated spiral ganglion cell cultures were prepared from postnatal day 4-5 (P4-5) cochleae and maintained using a procedure modified from the methods described by Bok et al., J Neurosci 23 (3): 777-87 (2003), which is incorporated herein by reference in its entirety. The cochleae were aseptically dissected from the temporal bone and submerged in ice-cold HBSS (Gibco). Subsequent steps involved the removal of the bony cochlear capsule and the spiral ligament. The organ of Corti, surrounding connective tissue and modiolar bone was removed while preserving the spiral ganglion neurons within the modiolus. […]
Neurite outgrowth was quantified by measuring the total length of neurites per neuron. Neurons were stained with NF200 at either 2 or 3 DIV, and neurite lengths were measured using the Fiji (Image J). Individual neurons were manually selected, and neurite lengths were determined using the Simple Neurite Tracer plugin. […]

The subject of assay [2] is human FAM19A5 protein epitope fragments F1-F6. The assay can be described thus: Epitope mapping: binding to BSA-conjugated FAM19A5 epitope fragments F1-F6 (Western blot / ELISA). Particulars: ELISA. On the procedure:
Overlapping peptide fragments (F1-F6 epitope fragments; SEQ ID NOs: 178-183) of the human FAM19A5 protein were synthesized and conjugated to BSA (SEQ ID NOs: 322-327). Binding of the different anti-FAM19A5 antibodies to the BSA-conjugated peptide fragments F1-F6 was determined by Western blot analysis or ELISA assay. For the Western blot analysis, BSA-conjugated FAM19A5 fragments F1-F6 were separated by SDS polyacrylamide gel electrophoresis and transferred to a nitrocellulose membrane by the standard procedure. The membrane was incubated with the anti-FAM19A5 antibody (e.g., 1-65, […], 1-65-scFv-rabbit Fc-SSS), and the antigen-antibody complexes were detected with the appropriate secondary antibody conjugated with horse-radish peroxidase (anti-rabbit IgG (Fc specific)-HRP, 1:4000 dilution). For the ELISA assay, the following protocol was used. FAM19A5 fragment F1-F6 (diluted to 1 μg/mL in 50 mM carbonate buffer (Biosesang) or to 20 μg/mL for high concentration analysis) were used to coat the wells of 96-well immuno plates (Thermo Scientific) (100 μL/well) overnight at 4° C. and then subsequently washed twice in 1×PBS. The plates were then blocked with the blocking buffer (100 μL/well) for 1 hour at room temperature. During the 1-hour incubation, the relavant anti-FAM19A5 antibodies were diluted to 1 μg/mL (or 20 μg/mL for high concentration analysis) in the diluent buffer. Once the plates were washed (2× using 1×PBS), the diluted anti-FAM19A5 antibodies were added to the appropriate wells, and the plates were incubated at room temperature for 1 hour. The plates were subsequently washed for a total of five times using the washing buffer. Next, the ODP substrate (prepared by dissolving one ODP tablet (O-phenylenediamine Dihydrochloride, Thermo) into 9 mL of sterilized deionized water and 1 mL of 10× stable Peroxide Stable buffer (Theromo)) was added to each of the wells, and the color change reaction was allowed to occur for 10 minutes. This reaction was stopped by adding 100 μL of 2N H2SO4 (Daejung) to the wells. The absorption value of each of the wells was detected at 492 nm using a 96-well microplate reader (Molecular Device).

The values below come from US20260265360A1, “USE OF ANTI-FAM19A5 ANTAGONISTS FOR TREATING HEARING DISORDERS” (NEURACLE SCIENCE CO., LTD., priority 2023, published 2026).

B1: 1-30: anti-FAM19A5 antibody, de-immunized variant of 3-2; VH SEQ ID NO: 235, VL SEQ ID NO: 240 (antibody, V domains shown)
VH: AVTLDESGGGLQTPGGALRLSCKASGFDFESFNMFWVRQAPGKGLEYVSQISSSEEDENYAPAVKGRATISRDNGQSTLYLQMNSLRAEDTGTYYCAKSSYDCPYGHCSSGVDSAGEIDAWGHGTEVIVSS
VL: ALTQPSSVSANPGETVKITCSGGGSEEEQYYYGWYQQKPGSAPVTLIYQDEERPSDIPSRFSGSTSGSTATLTITGVQAGDEADYYCGSWDSEDEDHFGAGTTLTVL
modifications: Low-PI VH, 1-30 VH, 1-17 VH, 1-32 VH, 4-11 VH, 6-10 VH; 1-30 VL
For B1, the “neurite length vs control human IgG antibody” value in assay [1] is “promoting neurite outgrowth”.

B2: 2-13: anti-FAM19A5 antibody; VH SEQ ID NO: 35, VL SEQ ID NO: 39 (antibody, V domains shown)
VH: AVTLDESGGGLQTPGGALSLVCKASGFTFSSHGMFWVRQTPGKGLEYVAEITNDGSGTNYGSAVKGRATISRDNGQSTVRLQLNNLRAEDTGTYFCARSTYECPGGFSCWGDTGQIDAWGHGTEVIVSS
VL: ALTQPSSVSANPGETVKITCSGGSYSYGWFQQKSPGSALVTVIYWDDERPSDIPSRFSGALSGSTNTLTITGVQADDEAVYFCGTEDISGTAGVFGAGTTLTVL
modifications: 2-13 VH; 2-13 VL
Take B2: in assay [2], the “binding to any of the epitope fragments F1-F6” value is recorded as “did not appear to bind”. The “neurite length vs control human IgG antibody” value in assay [1] was “promoting neurite outgrowth”.
